Test results published in paper PMC2765250 (Vaccine, 2009).

B1: VACV-WR peptide 71NP (LTIEAIENYF), ORF L4R (peptide)
peptide: LTIEAIENYF
B2: VACV-WR peptide 51P (SSPLELFML), ORF E9L (peptide)
peptide: SSPLELFML

Molecular target: purified rhesus macaque MHC class I molecule Mamu-B*17 with human beta2-microglobulin (rhesus macaque | human)
Experiment: radioligand binding

Row | Binder | IC50 [µM]
1 | B1 | 8.77
2 | B2 | 11.8
